# Data published in patent publication US10208290B2, “Virion display array for profiling functions and interactions of human membrane proteins” (THE JOHNS HOPKINS UNIVERSITY, priority 2013, dated 2019).
# B1: C5a: complement anaphylatoxin C5a, canonical ligand of GPR77 (Abcam), labeled with Cy5 (protein)
# chain: TLQKKIEEIAAKYKHSVVKKCCYDGACVNNDETCEQRAARISLGPRCIKAFTECCVVASQLRANISHKDMQLGR
# Columns and labels:
# [1] = target: T1, GPR77 (Homo sapiens, UniProt Q9P296); assay: Ligand binding assay on VirD Array; settings: C5a at 1 μM, gB:GPR77 virions on VirD Array
# T1 construct: gB:CD4 and gB:GPR77, express the full-length human membrane proteins at the gB locus under the control of native gB promoter; made in house; host or cells: HFT cells (telomerase-immortalised human foreskin fibroblasts) infected with recombinant HSV-1; purified extracellular virions
# Protocol: (§1) Ligand binding assay on VirD Array. The VirD Array was blocked in TBST with 1% BSA for 1 h at room temperature with gentle shaking. C5a (Abcam) was labeled with Cy5 NHS Easter (GE Healthcare) and incubated on the VirD Array at 1 μM in ligand binding buffer (1 mM MgCl2, 2 mM CalCl2, 0.2% BSA, and 25 mM HEPES, pH 7.4) at room temperature for 1 h with gentle shaking. The array was washed for […] in ice-cold washing buffer (0.5 M NaCl in 10 mM HEPES, pH 7.4) for 3 times with shaking, dried by spinning, and scanned as described above.
# [2] = system: GPR77; assay: Ligand binding assay on VirD Array; parameters: species or system human; settings: C5a at 1 μM
# Protocol: as §1
# T1 sequence (Q9P296 whole entry): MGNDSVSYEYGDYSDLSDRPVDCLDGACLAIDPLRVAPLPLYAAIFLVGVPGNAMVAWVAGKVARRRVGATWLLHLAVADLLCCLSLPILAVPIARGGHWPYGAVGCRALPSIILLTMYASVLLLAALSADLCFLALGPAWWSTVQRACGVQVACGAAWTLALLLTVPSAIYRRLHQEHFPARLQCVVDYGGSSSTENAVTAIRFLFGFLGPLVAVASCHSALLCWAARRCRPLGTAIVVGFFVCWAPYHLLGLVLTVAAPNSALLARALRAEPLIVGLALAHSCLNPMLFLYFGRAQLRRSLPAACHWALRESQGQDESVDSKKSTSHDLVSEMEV
molecule,measurement,setting,value
B1,binding of Cy5-labeled C5a to gB:GPR77 virions,[1],weaker binding signals
same,binding of Cy5-labeled C5a to GPR77-gC virions,[2]; GPR77-gC virions on VirD Array,strong binding activity
same,binding of Cy5-labeled C5a to other virions,[2]; other virions on VirD Array (specificity),no detectable signals
